Consider 4 substances from patent US20150259721A1.

The assay concerns the target Her2 (UniProt P04626). The assay can be described thus: cell-based or functional assay.

Consider 4D5-AzAb (HC274: LC81)-AF (antibody), for which the EC50 nM, concentration of the drug to kill 50% of the tumor cells in vitro, HCC1954 cells was 0.0149 nM and the EC50 nM, concentration of the drug to kill 50% of the tumor cells in vitro, SKOV3 cells amounted to 0.0523 nM.
The substance 4D5-AzAb (LC81)-AF (antibody) displayed an EC50 nM, concentration of the drug to kill 50% of the tumor cells in vitro, HCC1954 cells of 0.0437 nM; an EC50 nM, concentration of the drug to kill 50% of the tumor cells in vitro, PC3 cells of 1.13 nM; an EC50 nM, concentration of the drug to kill 50% of the tumor cells in vitro, SKOV3 cells of 0.201 nM.
With 4D5-AzAb (HC274)-AF (antibody), the EC50 nM, concentration of the drug to kill 50% of the tumor cells in vitro, HCC1954 cells came out at 0.0212 nM; the EC50 nM, concentration of the drug to kill 50% of the tumor cells in vitro, SKOV3 cells came out at 0.187 nM; the EC50 nM, in vitro potency (cytotoxicity), SKBR3 cells came out at 0.0074 nM; the EC50 nM, in vitro potency (cytotoxicity), SKOV3 cells worked out at 0.019 nM.
As for 4D5-AzAb (HC359)-AF (antibody), the EC50 nM, concentration of the drug to kill 50% of the tumor cells in vitro, HCC1954 cells worked out at 0.0241 nM; the EC50 nM, concentration of the drug to kill 50% of the tumor cells in vitro, PC3 cells came out at 1.33 nM; the EC50 nM, concentration of the drug to kill 50% of the tumor cells in vitro, SKOV3 cells was determined as 0.16 nM.
